Measurements published in patent US20250215104A1 (WALDEN BIOSCIENCES, published 2025).

Key:
[1] = molecular target: T1, human soluble urokinase plasminogen activator receptor (suPAR) (human, UniProt Q03405 23-303, limits assumed); assay: off-rate (kdis) screen of scFv clones, biosensor (Octet)
T1 construct: Target antigen of the off-rate screen; also called hsuPAR; human suPAR

[2] = molecular target: T2, cynomolgus soluble urokinase plasminogen activator receptor (suPAR) (cynomolgus, UniProt Q9GK78 23-303, limits assumed); assay: as above
T2 construct: Target antigen of the off-rate screen; also called cynomolgus uPAR; cynomolgus suPAR
T2 sequence (Q9GK78 23-303 limits assumed): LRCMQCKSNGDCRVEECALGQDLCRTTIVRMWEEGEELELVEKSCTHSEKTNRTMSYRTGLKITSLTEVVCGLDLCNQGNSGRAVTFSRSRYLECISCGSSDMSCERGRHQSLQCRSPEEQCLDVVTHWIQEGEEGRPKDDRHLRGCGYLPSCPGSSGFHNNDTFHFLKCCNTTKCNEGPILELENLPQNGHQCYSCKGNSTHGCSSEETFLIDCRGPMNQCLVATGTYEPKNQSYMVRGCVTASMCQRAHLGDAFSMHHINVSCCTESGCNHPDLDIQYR

T1 sequence (Q03405 23-303 limits assumed): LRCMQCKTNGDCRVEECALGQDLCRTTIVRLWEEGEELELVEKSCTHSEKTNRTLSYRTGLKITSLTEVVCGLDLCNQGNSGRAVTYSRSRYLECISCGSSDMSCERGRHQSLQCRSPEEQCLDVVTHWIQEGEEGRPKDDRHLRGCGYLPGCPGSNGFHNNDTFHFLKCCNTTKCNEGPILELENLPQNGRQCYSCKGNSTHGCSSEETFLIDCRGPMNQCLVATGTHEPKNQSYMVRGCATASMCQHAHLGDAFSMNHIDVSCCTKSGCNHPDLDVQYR

Binder	koff [1] [s⁻¹]	koff [2] [s⁻¹]
suPAR_DB01_A07 (scFv, V domains shown, screened as scFv) VH: QVQLVQSGAEVKKPGASVKVSCKASGGTFTSYYMHWVRQAPGQGLEWMGWIDHENGSTSYDQKFQGRVTMTRDTSTSTVYMELSSLRSEDTAVYYCARGYDVDWFVYWGQGTLVTVSS VL: DIQMTQSPSSLSASVGDRVTITCSARSSVSYMYWYQQKPGKAPKLLIYRTSNLASGVPSRFSGSGSGTDFTLTISSLQPEDFATYYCQQYHSYPPTFGGGTKVEIK	0.00571	0.00156
suPAR_DB01_B06 (scFv, V domains shown, screened as scFv) VH: QVQLVQSGAEVKKPGASVKVSCKASGYTFTDYYMHWVRQAPGQGLEWMGWIDHENGNTIYDQKFQGRVTMTRDTSTSTVYMELSSLRSEDTAVYYCARGYDVDWFVYWGQGTLVTVSS VL: DIQMTQSPSSLSASVGDRVTITCRARSSVSYMYWYQQKPGKAPKLLIYRTSNLASGVPSRFSGSGSGTDFTLTISSLQPEDFATYYCQQYHSYPPTFGGGTKVEIK	0.00348	5.62e-07
suPAR_DB01_B01 (scFv, V domains shown, screened as scFv) VH: QVQLVQSGAEVKKPGASVKVSCKASGYTFTDYYMHWVRQAPGQGLEWMGWIDHENGNTIYDQKFQGRVTMTRDTSTSTVYMELSSLRSEDTAVYYCARGYDVDWFVYWGQGTLVTVSS VL: DIQMTQSPSSLSASVGDRVTITCSASQSVSYMYWYQQKPGKAPKLLIYRTSNLASGVPSRFSGSGSGTDFTLTISSLQPEDFATYYCQQYHSYPPTFGGGTKVEIK	0.0028	4.88e-07
suPAR_DB01_A11 (scFv, V domains shown, screened as scFv) VH: QVQLVQSGAEVKKPGASVKVSCKASGYTFTNYYMHWVRQAPGQGLEWMGWIDHENGNTIYDQKFQGRVTMTRDTSTSTVYMELSSLRSEDTAVYYCARGYDVDWFVYWGQGTLVTVSS VL: DIQMTQSPSSLSASVGDRVTITCSASQSVSYMYWYQQKPGKAPKLLIYRTSNLASGVPSRFSGSGSGTDFTLTISSLQPEDFATYYCQQYHSYPPTFGGGTKVEIK	0.0015	0.000479
suPAR_DB01_B02 (scFv, V domains shown, screened as scFv) VH: QVQLVQSGAEVKKPGASVKVSCKASGYTFTNYYMHWVRQAPGQGLEWMGWIDHENGNTIYDQKFQGRVTMTRDTSTSTVYMELSSLRSEDTAVYYCARGYDVDWFVYWGQGTLVTVSS VL: DIQMTQSPSSLSASVGDRVTITCSARSSVSYMYWYQQKPGKAPKLLIYRTSNLASGVPSRFSGSGSGTDFTLTISSLQPEDFATYYCQQYHSYPPTFGGGTKVEIK	0.00142	0.000177
suPAR_DB01_B04 (scFv, V domains shown, screened as scFv) VH: QVQLVQSGAEVKKPGASVKVSCKASGYTFTSYYMHWVRQAPGQGLEWMGWIDHENGNTIYDQKFQGRVTMTRDTSTSTVYMELSSLRSEDTAVYYCARGYDVDWFVYWGQGTLVTVSS VL: DIQMTQSPSSLSASVGDRVTITCSASSSVSYMYWYQQKPGKAPKLLIYRTSNLASGVPSRFSGSGSGTDFTLTISSLQPEDFATYYCQQYHSYPPTFGGGTKVEIK	0.00206	8.48e-05
suPAR_DB01_A12 (scFv, V domains shown, screened as scFv) VH: QVQLVQSGAEVKKPGASVKVSCKASGYTFTGYYMHWVRQAPGQGLEWMGWIDPEGGNTIYAQKFQGRVTMTRDTSTSTVYMELSSLRSEDTAVYYCARGYDVDWFVYWGQGTLVTVSS VL: DIQMTQSPSSLSASVGDRVTITCSARSSVSYMYWYQQKPGKAPKLLIYRTSNLASGVPSRFSGSGSGTDFTLTISSLQPEDFATYYCQQYHSYPPTFGGGTKVEIK	0.00128	0.000142
suPAR_DB01_A10 (scFv, V domains shown, screened as scFv) VH: QVQLVQSGAEVKKPGASVKVSCKASGYTFSNYYMHWVRQAPGQGLEWMGWIDHENGNTIYDQKFQGRVTMTRDTSTSTVYMELSSLRSEDTAVYYCARGYDVDWFVYWGQGTLVTVSS VL: DIQMTQSPSSLSASVGDRVTITCSARSSVSYMYWYQQKPGKAPKLLIYRTSNLASGVPSRFSGSGSGTDFTLTISSLQPEDFATYYCQQYHSYPPTFGGGTKVEIK	0.00194	0.000299
suPAR_DB01_B05 (scFv, V domains shown, screened as scFv) VH: QVQLVQSGAEVKKPGASVKVSCKASGYTFTNYYMHWVRQAPGQGLEWMGWIDPENGNTIYDQKFQGRVTMTRDTSTSTVYMELSSLRSEDTAVYYCARGYDVDWFVYWGQGTLVTVSS VL: DIQMTQSPSSLSASVGDRVTITCRASSSVSYMYWYQQKPGKAPKLLIYRTSNLASGVPSRFSGSGSGTDFTLTISSLQPEDFATYYCQQYHSYPPTFGGGTKVEIK	0.00407	0.000181
suPAR_DB01_B08 (scFv, V domains shown, screened as scFv) VH: QVQLVQSGAEVKKPGASVKVSCKASGYTFTGYYMHWVRQAPGQGLEWMGWIDPENGSTIYDQKFQGRVTMTRDTSTSTVYMELSSLRSEDTAVYYCARGYDVDWFVYWGQGTLVTVSS VL: DIQMTQSPSSLSASVGDRVTITCSARSSVSYMYWYQQKPGKAPKLLIYRTSNLASGVPSRFSGSGSGTDFTLTISSLQPEDFATYYCQQYHSYPPTFGGGTKVEIK	0.00371	0.000211
suPAR_DB01_B03 (scFv, V domains shown, screened as scFv) VH: QVQLVQSGAEVKKPGASVKVSCKASGFNIKDYYIHWVRQAPGQGLEWMGWIDPENGNTIYAQKFQGRVTMTRDTSTSTVYMELSSLRSEDTAVYYCARGYDVDWFVYWGQGTLVTVSS VL: DIQMTQSPSSLSASVGDRVTITCRASSSVSYMYWYQQKPGKAPKLLIYRTSNLASGVPSRFSGSGSGTDFTLTISSLQPEDFATYYCQQYHSYPPTFGGGTKVEIK	0.00329	3.5e-07

Now from value to binder:

koff [1] [s⁻¹]	koff [2] [s⁻¹]	Binder
0.00403	0.000303	suPAR_DB01_C04 (scFv, V domains shown, screened as scFv) VH: QVQLVQSGAEVKKPGASVKVSCKASGYTFTGYYMHWVRQAPGQGLEWMGWIDPEGGSTIYDQKFQGRVTMTRDTSTSTVYMELSSLRSEDTAVYYCARGYDVDWFVYWGQGTLVTVSS VL: DIQMTQSPSSLSASVGDRVTITCSARSSVSYMYWYQQKPGKAPKLLIYRTSNLASGVPSRFSGSGSGTDFTLTISSLQPEDFATYYCQQYHSYPPTFGGGTKVEIK
0.00105	0.00108	suPAR_DB01_B10 (scFv, V domains shown, screened as scFv) VH: QVQLVQSGAEVKKPGASVKVSCKASGYTFSSYYMHWVRQAPGQGLEWMGWIDPENGSTIYDQKFQGRVTMTRDTSTSTVYMELSSLRSEDTAVYYCARGYDVDWFVYWGQGTLVTVSS VL: DIQMTQSPSSLSASVGDRVTITCSARQSVSSMYWYQQKPGKAPKLLIYRTSNLASGVPSRFSGSGSGTDFTLTISSLQPEDFATYYCQQYHSYPPTFGGGTKVEIK
0.0013	0.00042	suPAR_DB01_C08 (scFv, V domains shown, screened as scFv) VH: QVQLVQSGAEVKKPGASVKVSCKASGYTFTGYYMHWVRQAPGQGLEWMGWIDHENGNTIYAQKFQGRVTMTRDTSTSTVYMELSSLRSEDTAVYYCARGYDVDWFVYWGQGTLVTVSS VL: DIQMTQSPSSLSASVGDRVTITCSARSSVSYMYWYQQKPGKAPKLLIYRTSNLASGVPSRFSGSGSGTDFTLTISSLQPEDFATYYCQQYHSYPPTFGGGTKVEIK
0.00298	0.000238	suPAR_DB01_B12 (scFv, V domains shown, screened as scFv) VH: QVQLVQSGAEVKKPGASVKVSCKASGYTFTSYYMHWVRQAPGQGLEWMGWIDPENGNTIYDQKFQGRVTMTRDTSTSTVYMELSSLRSEDTAVYYCARGYDVDWFVYWGQGTLVTVSS VL: DIQMTQSPSSLSASVGDRVTITCSARSSVSYMYWYQQKPGKAPKLLIYRTSNLASGVPSRFSGSGSGTDFTLTISSLQPEDFATYYCQQYHSYPPTFGGGTKVEIK
0.00273	8.79e-05	suPAR_DB01_B11 (scFv, V domains shown, screened as scFv) VH: QVQLVQSGAEVKKPGASVKVSCKASGYTFTDYYMHWVRQAPGQGLEWMGWIDHENGSTSYDQKFQGRVTMTRDTSTSTVYMELSSLRSEDTAVYYCARGYDVDWFVYWGQGTLVTVSS VL: DIQMTQSPSSLSASVGDRVTITCSARSSVSYMYWYQQKPGKAPKLLIYRTSNLASGVPSRFSGSGSGTDFTLTISSLQPEDFATYYCQQYHSYPPTFGGGTKVEIK
0.00164	2.66e-05	suPAR_DB01_C07 (scFv, V domains shown, screened as scFv) VH: QVQLVQSGAEVKKPGASVKVSCKASGYTFTSYYMHWVRQAPGQGLEWMGWIDHENGSTSYDQKFQGRVTMTRDTSTSTVYMELSSLRSEDTAVYYCARGYDVDWFVYWGQGTLVTVSS VL: DIQMTQSPSSLSASVGDRVTITCRARQSVSYMYWYQQKPGKAPKLLIYRTSNLASGVPSRFSGSGSGTDFTLTISSLQPEDFATYYCQQYHSYPPTFGGGTKVEIK
0.00476	0.000203	suPAR_DB01_C09 (scFv, V domains shown, screened as scFv) VH: QVQLVQSGAEVKKPGASVKVSCKASGFNIKDYYIHWVRQAPGQGLEWMGWIDPENGNTIYAQKFQGRVTMTRDTSTSTVYMELSSLRSEDTAVYYCARGYDVDWFVYWGQGTLVTVSS VL: DIQMTQSPSSLSASVGDRVTITCSARSSVSYMYWYQQKPGKAPKLLIYRTSNLASGVPSRFSGSGSGTDFTLTISSLQPEDFATYYCQQYHSYPPTFGGGTKVEIK
0.00226	8.96e-05	suPAR_DB01_C11 (scFv, V domains shown, screened as scFv) VH: QVQLVQSGAEVKKPGASVKVSCKASGGTFTSYYMHWVRQAPGQGLEWMGWIDPENGSTIYDQKFQGRVTMTRDTSTSTVYMELSSLRSEDTAVYYCARGYDVDWFVYWGQGTLVTVSS VL: DIQMTQSPSSLSASVGDRVTITCSARSSVSYMYWYQQKPGKAPKLLIYRTSNLASGVPSRFSGSGSGTDFTLTISSLQPEDFATYYCQQYHSYPPTFGGGTKVEIK
0.00363	0.000266	suPAR_DB01_C10 (scFv, V domains shown, screened as scFv) VH: QVQLVQSGAEVKKPGASVKVSCKASGYTFTNYYMHWVRQAPGQGLEWMGWIDPENGNTIYAQKFQGRVTMTRDTSTSTVYMELSSLRSEDTAVYYCARGYDVDWFVYWGQGTLVTVSS VL: DIQMTQSPSSLSASVGDRVTITCRARSSISYMYWYQQKPGKAPKLLIYRTSNLASGVPSRFSGSGSGTDFTLTISSLQPEDFATYYCQQYHSYPPTFGGGTKVEIK
0.00353	0.000234	suPAR_DB01_C02 (scFv, V domains shown, screened as scFv) VH: QVQLVQSGAEVKKPGASVKVSCKASGYTFNTYYMHWVRQAPGQGLEWMGWIDPENGNTIYDQKFQGRVTMTRDTSTSTVYMELSSLRSEDTAVYYCARGYDVDWFVYWGQGTLVTVSS VL: DIQMTQSPSSLSASVGDRVTITCSASSSVSYMYWYQQKPGKAPKLLIYRTSSLQSGVPSRFSGSGSGTDFTLTISSLQPEDFATYYCQQYHSYPPTFGGGTKVEIK
